± gives the uncertainty stated by the source.

A short description of the data set: amyloid nucleation score (Sup35N fusion, yeast selection) (log enrichment); library NNK3; higher = more nucleation; inactive = no reads after selection. The procedure, abridged:
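Sup35N was fused to peptides of 20 random codons and expressed in psi-negative yeast, which were induced with 100 μM copper sulfate for 24 hours and then grown on medium lacking adenine and uracil for 7 days at 30°C. Plasmid inserts from input and output were sequenced on Illumina. The nucleation score is the DiMSum log enrichment of output over input reads, centred on the mode score of non-aggregating sequences. Sequences with under 100 input reads were left out, and random libraries had three technical output replicates.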
Turning to GIVILLNYHPIRLF, the amyloid nucleation score amounted to 2.2 ± 0.068.

Consider GIVYKRVYRMWVHVAEAESR, for which the amyloid nucleation score result is “inactive”.

Take GIYCMSVSWFNVDLDTTGNT: the amyloid nucleation score result was “inactive”.

For the substance GIYRLGVNHGMFSCLM, the amyloid nucleation score entry was “inactive”.

Regarding GKARQSLHIGSSLLTFMA, the amyloid nucleation score entry was “inactive”.

For the substance GKKDRVRQTYFYMNSYIHW, the amyloid nucleation score is 1.65 ± 0.085.

For the substance GKLCYYSVYWESALNQPRSS, the amyloid nucleation score entry was “inactive”.

Regarding GKLFWFCFRWRYLLTKMVQN, the amyloid nucleation score is -0.702 ± 1.3.

GKNSCCKLIVWDEVFGLKLC: the amyloid nucleation score entry was “inactive”.

As for GKPWGTGSLVLWYLYDEDCA, the amyloid nucleation score result is “inactive”.

Turning to GKSIKGYGHSVFTVVLTVGY, the amyloid nucleation score result is “inactive”.

With GKYSYLDIPTTIVYMFIH, the amyloid nucleation score was determined as 1.44 ± 0.14.

For the substance GLALGWHFTC, the amyloid nucleation score entry is “inactive”.

For the substance GLCHMFGYDFTSMNCSSPGA, the amyloid nucleation score result is “inactive”.

As to GLDLSSYPEL, the amyloid nucleation score result was “inactive”.

For GLFCLKFKPTQGVPRQKLL, the amyloid nucleation score entry is “inactive”.

As for GLGWNWDWR, the amyloid nucleation score result was “inactive”.

Consider GLNLR, for which the amyloid nucleation score entry is “inactive”.

GLPLEWDDSWNVKIVLLCWS: the amyloid nucleation score entry was “inactive”.

Consider GLRVTH, for which the amyloid nucleation score entry was “inactive”.

Consider GLSISFTTDFFLKVLSESAR, for which the amyloid nucleation score entry was “inactive”.

GLSLNYCVLGYGLLTM: the amyloid nucleation score entry was “inactive”.

Take GLTFCATRCRDWLEGWQY: the amyloid nucleation score result was “inactive”.

Take GLVCFYTGLDVMLDTREFYR: the amyloid nucleation score entry was “inactive”.

With GLYMKVKFGYTEWQDFGQSS, the amyloid nucleation score is -0.237 ± 0.69.

With GLYSDNSVYTLQMFIEGAHH, the amyloid nucleation score came out at 0.4 ± 0.3.

Consider GMAWLVGWLGLRLLTYFGYR, for which the amyloid nucleation score result is “inactive”.

In the case of GMDKRNNYMSIIDWRVPHSI, the amyloid nucleation score entry is “inactive”.

In the case of GMFPVVRNGRWELRCPAVKW, the amyloid nucleation score entry is “inactive”.

For GMYGMSGMV, the amyloid nucleation score entry is “inactive”.

As to GNALSIEVDGSIK, the amyloid nucleation score entry is “inactive”.

As to GNFAM, the amyloid nucleation score result is “inactive”.

Consider GNFKCELVSALSDNIICPYM, for which the amyloid nucleation score result was “inactive”.

Consider GNIAYSVLMWSDCKTCQCDV, for which the amyloid nucleation score was 1.82 ± 0.058.

Regarding GNKQVVNWDGYF, the amyloid nucleation score was -0.431 ± 0.96.

In the case of GNLSFTPGITRKKSVLEYRH, the amyloid nucleation score entry is “inactive”.

Take GNMLSPI: the amyloid nucleation score entry was “inactive”.

Take GNSHLSCERSCNIKMCMSGG: the amyloid nucleation score entry is “inactive”.

Consider GNSIALSE, for which the amyloid nucleation score entry was “inactive”.

As to GNSSII, the amyloid nucleation score result is “inactive”.

Consider GNWTQ, for which the amyloid nucleation score result was “inactive”.

For GNYRLSLHVVL, the amyloid nucleation score amounted to 1.21 ± 0.18.

GNYVRIETS: the amyloid nucleation score result was “inactive”.

Turning to GPIEPFSMLSM, the amyloid nucleation score is -0.291 ± 0.7.

For GPPAEASHKLWPASPRDRCP, the amyloid nucleation score result is “inactive”.

Regarding GPPLNYEVT, the amyloid nucleation score entry is “inactive”.

In the case of GQFML, the amyloid nucleation score result was “inactive”.

For the substance GQWLYGWTRYVGPTI, the amyloid nucleation score entry is “inactive”.

Take GRANGFQQIDLCEYHREYLN: the amyloid nucleation score entry is “inactive”.

On to GRCNLGSMNNWFKLPLKSVR, for which the amyloid nucleation score entry is “inactive”.

With GRCVEVCLIWLTKGDQQCSY, the amyloid nucleation score result is “inactive”.

Consider GREAGVIIWVRCLYFYVFER, for which the amyloid nucleation score entry is “inactive”.

With GRFASYMYCILQQHSLFYWV, the amyloid nucleation score result was “inactive”.

Take GRFRLMNLFQTDSRINLWVR: the amyloid nucleation score entry is “inactive”.

In the case of GRLSVFLGYIHGRCYGALGR, the amyloid nucleation score was -0.635 ± 1.9.

GRVESSVIYRPLNLGGGQES: the amyloid nucleation score entry was “inactive”.

As to GSASHDPTACCFYGFV, the amyloid nucleation score entry was “inactive”.

As to GSATVMIWQR, the amyloid nucleation score entry was “inactive”.

With GSDSVAGHYFSFVYKVIAEF, the amyloid nucleation score was 0.292 ± 0.3.

GSFSMKDTVEVYLTPVWFSR: the amyloid nucleation score entry is “inactive”.

For the substance GSGIINDMGFRWIFFMWVMA, the amyloid nucleation score result is “inactive”.

Consider GSICYHGWTFKGKVKILNGI, for which the amyloid nucleation score entry was “inactive”.

Regarding GSKESPKRYSSSALASVGVI, the amyloid nucleation score result is “inactive”.

For GSLKPMFDRSCFFNIKAIML, the amyloid nucleation score result was “inactive”.

Take GSLPFLSYLGRVKCGERRSS: the amyloid nucleation score entry was “inactive”.

Take GSNFICTFRVGKGYRPVCLE: the amyloid nucleation score entry was “inactive”.

As to GSNRQTVRFNWS, the amyloid nucleation score entry was “inactive”.

For the substance GSRLSIQTFMTS, the amyloid nucleation score result is “inactive”.

Consider GSSKCRRLCGRVRQYSYWNR, for which the amyloid nucleation score entry is “inactive”.

On to GSSSCY, for which the amyloid nucleation score result is “inactive”.

For the substance GSVFGKVGTVKSEMPRGSSN, the amyloid nucleation score entry was “inactive”.

With GSVGSRADVFLGCGDEWRQA, the amyloid nucleation score entry was “inactive”.

Regarding GSWSVRLPLIWTKY, the amyloid nucleation score entry is “inactive”.

Turning to GTAIIEGTM, the amyloid nucleation score entry is “inactive”.

As to GTGMCCLIVSLVFLPLCDIA, the amyloid nucleation score result was “inactive”.

In the case of GTIHFHGGNHCSLGLL, the amyloid nucleation score entry is “inactive”.

GTLDNDRVIVWSDLDFSCFR: the amyloid nucleation score entry was “inactive”.

With GTSIYSYRYLRYFSMFNM, the amyloid nucleation score result is “inactive”.

Take GTWNVKAGGPYFKVVT: the amyloid nucleation score result is “inactive”.

On to GVADGGMPRNSSWRLSGVVR, for which the amyloid nucleation score entry is “inactive”.

Take GVCKWFCESIDMTLRAVWAN: the amyloid nucleation score result was “inactive”.

As for GVCSLCKTLR, the amyloid nucleation score result was “inactive”.

Consider GVFAIGANLQANVGNDRAYT, for which the amyloid nucleation score result is “inactive”.

Regarding GVGGPDGCTGNDTFMRQYTN, the amyloid nucleation score entry was “inactive”.

Turning to GVGVMLSYKGIFMHLSFVGE, the amyloid nucleation score result is “inactive”.

Turning to GVHWETDEGNVVRL, the amyloid nucleation score entry is “inactive”.

With GVIFEISVSCVQTFCPFHYL, the amyloid nucleation score came out at 1.21 ± 0.093.

As for GVIILSLTAKCQAMDSVRTL, the amyloid nucleation score turned out to be 0.841 ± 0.14.

Regarding GVLCMFGSTWRMFMEVGLHV, the amyloid nucleation score result is “inactive”.

With GVLMNHIELL, the amyloid nucleation score entry was “inactive”.

In the case of GVLSYNMIHT, the amyloid nucleation score entry is “inactive”.

Turning to GVLYDGVGDNHCCGSRKLVL, the amyloid nucleation score result was “inactive”.

For GVRHRLAVFQYMFTHVLWTM, the amyloid nucleation score entry is “inactive”.

Regarding GVRLAWVTSCCRV, the amyloid nucleation score entry is “inactive”.

Regarding GVTLTTLDSLSDFGWLIE, the amyloid nucleation score entry was “inactive”.

In the case of GVVVWYSGDWTECMVVNRCD, the amyloid nucleation score is 0.78 ± 0.12.

GWFMCVSTAWGVYNAYIPMQ: the amyloid nucleation score entry was “inactive”.

GWFRSQSMPIALEYLTGPGS: the amyloid nucleation score entry was “inactive”.

With GWGPRPSKNVCHIRCDMFFM, the amyloid nucleation score turned out to be 1.59 ± 0.13.

Regarding GWGVHWFYIMVINHLF, the amyloid nucleation score result is “inactive”.

As to GWNLGMAHSRRYGPVNISAW, the amyloid nucleation score result is “inactive”.

Regarding GWNLTHRMSTGSKLLCPLRI, the amyloid nucleation score entry was “inactive”.

Take GWRRPNSYDLEAEFMRKSGG: the amyloid nucleation score entry was “inactive”.

For the substance GWSDRFSMLYSFLLLLWKSP, the amyloid nucleation score entry is “inactive”.

In the case of GWSLGARSNYGLSTGQRGCA, the amyloid nucleation score result is “inactive”.

With GWWVRHSWGDGSVASVCIKM, the amyloid nucleation score entry was “inactive”.

As to GYCNESTVWYDS, the amyloid nucleation score entry was “inactive”.

GYDVRL: the amyloid nucleation score entry was “inactive”.

With GYERSDKKLDKKVL, the amyloid nucleation score entry was “inactive”.

GYFTRFSVFNNMEPLSCCMC: the amyloid nucleation score turned out to be 1.38 ± 0.13.

GYGHVIYLYYCQRHDNPQVQ: the amyloid nucleation score entry was “inactive”.

Turning to GYIRPALMARGYIVVNSANI, the amyloid nucleation score entry is “inactive”.

With GYLLRFMCCNCIPSTEIMIE, the amyloid nucleation score came out at 2.73 ± 0.056.

Consider GYPFSRLSSVV, for which the amyloid nucleation score entry was “inactive”.

GYRLRYNFVVFLM: the amyloid nucleation score was found to be 1.02 ± 0.21.

With GYSVYYANVSVRGLKSRDHC, the amyloid nucleation score result is “inactive”.

As to GYTRVRVGCYVTVRKFWSMT, the amyloid nucleation score was -0.14 ± 1.

GYVTCDLL had an amyloid nucleation score of 1.1 ± 0.11.

For GYYNSYQAELMTTACSDYVD, the amyloid nucleation score entry is “inactive”.

Regarding HALFGYISRVDNLYSSMVSH, the amyloid nucleation score result is “inactive”.

For HAVPVYD, the amyloid nucleation score was -0.394 ± 1.9.

Consider HCDLGESFTALYSFHAVLML, for which the amyloid nucleation score entry is “inactive”.

Take HCFTVWWEWP: the amyloid nucleation score result is “inactive”.

With HCGYGLFNCK, the amyloid nucleation score entry was “inactive”.

With HCNFMRFCLRAFSSGMHWLF, the amyloid nucleation score result was “inactive”.

Turning to HCSCDGAIRYDILQSNHKE, the amyloid nucleation score result is “inactive”.

For the substance HDDSTSNNSPVSRKPLSPWS, the amyloid nucleation score result is “inactive”.

As to HDHFWLYCMCNRTSGYLESF, the amyloid nucleation score entry was “inactive”.

On to HDRTVSLQYRVNTRVRLASW, for which the amyloid nucleation score entry is “inactive”.

As for HDTPFMCV, the amyloid nucleation score entry is “inactive”.

On to HDVFSNYLITVQTFLWLSGV, for which the amyloid nucleation score result is “inactive”.

For the origin of these results see the supplement of paper PMC12042874.
